Reference: the supplement of paper PMC9732359
± gives the uncertainty stated by the source.

Experiment: protein stability index of a GFP-peptide fusion (yeast GPS) (PSI 1-4); higher = more stable; sorted into four equal gates, so the index is relative within each strain
Outline: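 For each peptide, the protein stability index sums the read frequency in every gate after multiplying it by the gate number. Read frequencies came from plasmids that were PCR-amplified from each gate and Illumina-sequenced, with reads assigned to strains by barcodes. The gates were four equal bins of GFP/Cherry fluorescence ratio applied to mid-log yeast in leucine-free medium carrying a pooled library of tiled 17-residue yeast protein peptides fused downstream of GFP on a Cherry-expressing plasmid.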

WVLHRDLKPANIMVTID [SSN3]
protein stability index (doa10∆): 1.28 ± 0.18
protein stability index (pdr5∆): 1.98 ± 0.14
protein stability index (ubr1∆): 2.48 ± 0.14

KVNSRDDSFFNETNDKK [PRP28]
protein stability index (doa10∆): 2.82 ± 0.12
protein stability index (pdr5∆): 3.1 ± 0.11
protein stability index (san1∆): 3.04 ± 0.13
protein stability index (ubr1∆): 2.94 ± 0.12

WDYLQLTVAMYINSDSV [RPO31]
protein stability index (doa10∆): 1.32 ± 0.071
protein stability index (pdr5∆): 1.34 ± 0.086
protein stability index (san1∆): 1.64 ± 0.25
protein stability index (ubr1∆): 1.58 ± 0.071

FMVRLDSEKHIDFAPTS [RPS9A]
protein stability index (doa10∆): 2.91 ± 0.071
protein stability index (pdr5∆): 2.87 ± 0.047
protein stability index (san1∆): 2.72 ± 0.05
protein stability index (ubr1∆): 2.82 ± 0.047

ILNSIPAAANLDALVDC [YJL039C/NUP192]
protein stability index (doa10∆): 2.18 ± 0.074
protein stability index (pdr5∆): 2.72 ± 0.11
protein stability index (san1∆): 2.39 ± 0.067
protein stability index (ubr1∆): 2.5 ± 0.12

NSDLEGKIRGVEDDLVT [SMC2]
protein stability index (doa10∆): 3.14 ± 0.094
protein stability index (pdr5∆): 3.33 ± 0.064
protein stability index (san1∆): 3.15 ± 0.067
protein stability index (ubr1∆): 3.24 ± 0.051

VNGSTTAGVGSTPNFGG [SIN4]
protein stability index (doa10∆): 3.58 ± 0.079
protein stability index (pdr5∆): 3.33 ± 0.095
protein stability index (san1∆): 3.4 ± 0.078
protein stability index (ubr1∆): 3.25 ± 0.077

NDLDEDDIYDISLLKNR [RPN4]
protein stability index (doa10∆): 2.87 ± 0.12
protein stability index (pdr5∆): 3.2 ± 0.11
protein stability index (san1∆): 3.23 ± 0.14
protein stability index (ubr1∆): 3.22 ± 0.2

GKDCKLQNLQRIIRKKI [RRI2]
protein stability index (doa10∆): 2.98 ± 0.092
protein stability index (pdr5∆): 3.51 ± 0.14
protein stability index (san1∆): 3.14 ± 0.096
protein stability index (ubr1∆): 3.05 ± 0.13

PIVLLNTLRKCYPQFAE [UBP6]
protein stability index (doa10∆): 1.25 ± 0.11
protein stability index (pdr5∆): 1.26 ± 0.073
protein stability index (san1∆): 1.14 ± 0.16
protein stability index (ubr1∆): 1.19 ± 0.12

IIPIVDYAQLDHLVSSI [ARP9]
protein stability index (doa10∆): 2.13 ± 0.05
protein stability index (pdr5∆): 2.48 ± 0.051
protein stability index (san1∆): 2.34 ± 0.053
protein stability index (ubr1∆): 2.38 ± 0.039

ERRLQTQVYKLGLAKSV [RPS9A]
protein stability index (doa10∆): 1.29 ± 0.067
protein stability index (pdr5∆): 1.23 ± 0.056
protein stability index (san1∆): 1.2 ± 0.18
protein stability index (ubr1∆): 1.23 ± 0.064

LDPTDDEGHVLKLENLH [SIN4]
protein stability index (pdr5∆): 3.16 ± 0.23
protein stability index (san1∆): 3.12 ± 0.13

RLGSFTRAKAKVEEMNN [RPL36A]
protein stability index (pdr5∆): 2.61 ± 0.2
protein stability index (san1∆): 2.85 ± 0.19
protein stability index (ubr1∆): 2.87 ± 0.28

LDENLNSLSSNLSSLIV [YJL041W/NSP1]
protein stability index (doa10∆): 2.41 ± 0.04
protein stability index (pdr5∆): 2.54 ± 0.061
protein stability index (san1∆): 2.66 ± 0.065
protein stability index (ubr1∆): 2.6 ± 0.044

EEGRAIPGEYVTYALSG [RPS21A]
protein stability index (san1∆): 2.81 ± 0.19
protein stability index (ubr1∆): 2.96 ± 0.16

LEIVYGYALRDVQARRQ [RPP1]
protein stability index (doa10∆): 2.43 ± 0.15
protein stability index (pdr5∆): 1.92 ± 0.11
protein stability index (san1∆): 2.36 ± 0.13
protein stability index (ubr1∆): 2.3 ± 0.26

EGDQAEVIFSFEGTPPF [YMR129W/POM152]
protein stability index (doa10∆): 3.29 ± 0.17
protein stability index (pdr5∆): 3.39 ± 0.17
protein stability index (san1∆): 2.52 ± 0.21
protein stability index (ubr1∆): 3.36 ± 0.1

QKIVVVRAEELNISGEF [RPL16A]
protein stability index (doa10∆): 3.64 ± 0.2
protein stability index (pdr5∆): 3.06 ± 0.21
protein stability index (san1∆): 3.17 ± 0.16
protein stability index (ubr1∆): 3.28 ± 0.19

ANKLSKSHSTVSSSSRH [ISW2]
protein stability index (doa10∆): 2.9 ± 0.066
protein stability index (pdr5∆): 2.63 ± 0.069
protein stability index (san1∆): 2.71 ± 0.056
protein stability index (ubr1∆): 2.93 ± 0.037

LLETITYVLNTWTNSKI [YML103C/NUP188]
protein stability index (doa10∆): 1.85 ± 0.05
protein stability index (pdr5∆): 2.21 ± 0.05
protein stability index (san1∆): 2.14 ± 0.066
protein stability index (ubr1∆): 2.29 ± 0.036

QAAAKPSLEKSSFTFGS [YLR335W/NUP2]
protein stability index (doa10∆): 3.04 ± 0.1
protein stability index (pdr5∆): 2.97 ± 0.1
protein stability index (san1∆): 2.97 ± 0.18
protein stability index (ubr1∆): 2.73 ± 0.075

SHFSPDIKAAVDDSMEL [ITC1]
protein stability index (doa10∆): 2.27 ± 0.096
protein stability index (pdr5∆): 2.44 ± 0.12
protein stability index (san1∆): 1.9 ± 0.15
protein stability index (ubr1∆): 2.48 ± 0.079

SFTPSTVPNINFSGLNG [YOR098C/NUP1]
protein stability index (doa10∆): 2.59 ± 0.066
protein stability index (pdr5∆): 2.68 ± 0.068
protein stability index (san1∆): 2.83 ± 0.056
protein stability index (ubr1∆): 2.97 ± 0.05

NKSSVRPTGGANMATVP [MED6]
protein stability index (doa10∆): 2.69 ± 0.063
protein stability index (pdr5∆): 2.79 ± 0.074
protein stability index (san1∆): 2.71 ± 0.1
protein stability index (ubr1∆): 2.83 ± 0.057

EINTALNTLLVTSADSN [SWI1]
protein stability index (doa10∆): 2.05 ± 0.065
protein stability index (pdr5∆): 2.16 ± 0.048
protein stability index (san1∆): 2.38 ± 0.064
protein stability index (ubr1∆): 1.74 ± 0.065

SCQGNVIYRNSLYKVSF [YMR129W/POM152]
protein stability index (doa10∆): 2.54 ± 0.064
protein stability index (pdr5∆): 2.76 ± 0.068
protein stability index (san1∆): 2.56 ± 0.064
protein stability index (ubr1∆): 2.71 ± 0.094

AATNETFENINSLFYLK [IRR1]
protein stability index (doa10∆): 2.43 ± 0.25
protein stability index (pdr5∆): 2.37 ± 0.21
protein stability index (san1∆): 2.71 ± 0.17

MKATSNTLEEFEHGRTP [FAS2]
protein stability index (doa10∆): 2.8 ± 0.08
protein stability index (pdr5∆): 2.56 ± 0.16
protein stability index (san1∆): 1.38 ± 0.15
protein stability index (ubr1∆): 3.66 ± 0.12

AKSLLKLQLGQLYESGN [COR1]
protein stability index (doa10∆): 2.97 ± 0.12
protein stability index (pdr5∆): 3.27 ± 0.13
protein stability index (san1∆): 2.99 ± 0.1
protein stability index (ubr1∆): 3.01 ± 0.087

KDLVIVSNLMGRNIGHP [RPB3]
protein stability index (doa10∆): 3.22 ± 0.051
protein stability index (pdr5∆): 3.1 ± 0.05
protein stability index (san1∆): 3.18 ± 0.039
protein stability index (ubr1∆): 2.88 ± 0.037

ILNELQPNARALERYDE [SMC1]
protein stability index (doa10∆): 3.3 ± 0.22
protein stability index (pdr5∆): 3.61 ± 0.11
protein stability index (san1∆): 3.27 ± 0.078
protein stability index (ubr1∆): 3.49 ± 0.086

LSSLKSFAIYSSTIDAP [SRB8]
protein stability index (doa10∆): 1.71 ± 0.038
protein stability index (pdr5∆): 1.57 ± 0.034
protein stability index (san1∆): 1.83 ± 0.064
protein stability index (ubr1∆): 1.73 ± 0.038

VDIRVGKKSSSSTKDYL [RET1]
protein stability index (doa10∆): 3.42 ± 0.29
protein stability index (pdr5∆): 3.37 ± 0.12
protein stability index (san1∆): 3.56 ± 0.13
protein stability index (ubr1∆): 2.65 ± 0.18

DQCVGQVGLNFELSFTG [YMR129W/POM152]
protein stability index (doa10∆): 2.94 ± 0.061
protein stability index (pdr5∆): 3.01 ± 0.077
protein stability index (san1∆): 3.06 ± 0.046
protein stability index (ubr1∆): 2.97 ± 0.043

MDPQTLITKANKVSYYG [RTT102]
protein stability index (doa10∆): 1.85 ± 0.047
protein stability index (pdr5∆): 1.73 ± 0.042
protein stability index (san1∆): 1.71 ± 0.12
protein stability index (ubr1∆): 1.87 ± 0.052

MEFSNLYKEFFNEKFPS [NUT1]
protein stability index (pdr5∆): 3.17 ± 0.15
protein stability index (san1∆): 2.98 ± 0.069
protein stability index (ubr1∆): 3.04 ± 0.1

LGYNFDGSAIEDDDIRS [SNF5]
protein stability index (doa10∆): 3.39 ± 0.086
protein stability index (pdr5∆): 3.26 ± 0.072
protein stability index (san1∆): 3.35 ± 0.068
protein stability index (ubr1∆): 3.35 ± 0.05

PFDKKSNSALFRAVGEG [FAS1]
protein stability index (doa10∆): 2.92 ± 0.074
protein stability index (pdr5∆): 2.92 ± 0.082
protein stability index (san1∆): 2.85 ± 0.052
protein stability index (ubr1∆): 2.91 ± 0.063

KEKVEEQEQQQQQIIKI [RPS20]
protein stability index (doa10∆): 3.16 ± 0.076
protein stability index (pdr5∆): 3.38 ± 0.11
protein stability index (san1∆): 3.19 ± 0.066
protein stability index (ubr1∆): 3.24 ± 0.091

GSVELSTGDYTFTIQLL [YML103C/NUP188]
protein stability index (doa10∆): 2.05 ± 0.084
protein stability index (pdr5∆): 2.41 ± 0.072
protein stability index (san1∆): 1.89 ± 0.11
protein stability index (ubr1∆): 2.17 ± 0.051

PSELNQLKMVNERELNV [RPC82]
protein stability index (doa10∆): 3.14 ± 0.13
protein stability index (pdr5∆): 2.94 ± 0.15

EDEAALAKLVSTIDANF [RPL8A]
protein stability index (doa10∆): 2.91 ± 0.065
protein stability index (pdr5∆): 3.02 ± 0.068
protein stability index (san1∆): 2.66 ± 0.062
protein stability index (ubr1∆): 2.85 ± 0.05

MLDKLMVTSIRSTPNYI [MED6]
protein stability index (doa10∆): 2.4 ± 0.064
protein stability index (pdr5∆): 2.52 ± 0.061
protein stability index (san1∆): 2.43 ± 0.098
protein stability index (ubr1∆): 2.66 ± 0.05

FENVKLLAEYDNIYRNL [MED4]
protein stability index (doa10∆): 2.43 ± 0.052
protein stability index (pdr5∆): 2.64 ± 0.045
protein stability index (san1∆): 2.62 ± 0.071
protein stability index (ubr1∆): 2.31 ± 0.028

NLQPASVINNYLREDQM [NUT1]
protein stability index (doa10∆): 2.61 ± 0.075
protein stability index (pdr5∆): 3.08 ± 0.099
protein stability index (san1∆): 2.82 ± 0.094
protein stability index (ubr1∆): 2.93 ± 0.14

QSISNENDVKPISIEAP [SWI3]
protein stability index (doa10∆): 2.55 ± 0.042
protein stability index (pdr5∆): 2.34 ± 0.044
protein stability index (san1∆): 2.42 ± 0.052
protein stability index (ubr1∆): 2.32 ± 0.037

ANKEKKKAEKAARKAEK [RPL24A]
protein stability index (doa10∆): 3.27 ± 0.059
protein stability index (pdr5∆): 3.33 ± 0.065
protein stability index (san1∆): 3.38 ± 0.036
protein stability index (ubr1∆): 3.48 ± 0.055

LCMDSSYIGTIIVKDKS [POP1]
protein stability index (doa10∆): 1.2 ± 0.091
protein stability index (pdr5∆): 1.49 ± 0.048
protein stability index (san1∆): 1.13 ± 0.11
protein stability index (ubr1∆): 1.28 ± 0.089

GPLAEEPIYGVQYKLLS [SNU114]
protein stability index (doa10∆): 2.9 ± 0.11
protein stability index (pdr5∆): 2.6 ± 0.12
protein stability index (san1∆): 2.74 ± 0.08
protein stability index (ubr1∆): 3.17 ± 0.13

VPNILSLDMNSMNKELI [NUT1]
protein stability index (doa10∆): 2.14 ± 0.075
protein stability index (pdr5∆): 1.96 ± 0.084
protein stability index (san1∆): 1.46 ± 0.27
protein stability index (ubr1∆): 1.91 ± 0.075

CPNSTGAELRSVCTEAG [RPT1]
protein stability index (doa10∆): 1.54 ± 0.053
protein stability index (pdr5∆): 1.56 ± 0.058
protein stability index (san1∆): 1.65 ± 0.098
protein stability index (ubr1∆): 1.55 ± 0.047

QDMQLKIWSVKDGSNPR [RPN14]
protein stability index (doa10∆): 2.99 ± 0.097
protein stability index (pdr5∆): 2.86 ± 0.088
protein stability index (san1∆): 2.45 ± 0.1
protein stability index (ubr1∆): 2.62 ± 0.075
